Reference: article PMC3490818

Molecular target: T1, Signal peptide peptidase (human (endogenous in HEK293)), Q8TCT9
T1 chain: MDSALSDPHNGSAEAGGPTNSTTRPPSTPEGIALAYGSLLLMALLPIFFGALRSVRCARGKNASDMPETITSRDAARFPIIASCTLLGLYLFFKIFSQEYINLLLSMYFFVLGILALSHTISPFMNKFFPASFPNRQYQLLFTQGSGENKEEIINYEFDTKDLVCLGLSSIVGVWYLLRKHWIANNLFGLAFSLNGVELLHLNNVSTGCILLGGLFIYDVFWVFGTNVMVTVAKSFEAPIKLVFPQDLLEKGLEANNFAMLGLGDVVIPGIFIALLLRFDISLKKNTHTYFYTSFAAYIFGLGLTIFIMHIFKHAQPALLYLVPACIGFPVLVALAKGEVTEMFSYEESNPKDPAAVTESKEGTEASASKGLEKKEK
Assay: native gel or EMSA; BN-PAGE of HEK293 or HEK293 vigilin-FLAG lysates solubilized in 0.5% DDM, Western blot for SPP and vigilin (or FLAG); second dimension SDS-PAGE for SPP
Conditions: remark: other sources report otherwise

B1: Signal peptide peptidase, Q8TCT9 1-377 (natural protein)
chain: T1 chain
A stoichiometry N of 2 was found for B1 in this work.
